Assay [1] has as its target kap3_human PRKAR2B (UniProt P31323).
Assay [2] shares this target. This is another data set of the same source.

Consider “cAMP-dependent protein kinase catalytic subunit alpha (Homo sapiens) (from UniProt P17612) L206R”, for which the “effect of a mutation on the interaction” value is recorded as “decreasing interaction strength” in the assay with kap3_human PRKAR2B [1] and “disrupting interaction strength” in the assay with kap3_human PRKAR2B [2].

The values above are taken from IntAct's records for PubMed 25477193.
